Results on 3 molecules are retold here after PMC4538830, “CTNNBL1 facilitates the association of CWC15 with CDC5L and is required to maintain the abundance of the Prp19 spliceosomal complex” (Nucleic Acids Research, 2015).

For series [1], the target named is T1, full-length recombinant His tagged CTNNBL1 (human, UniProt Q8WYA6 1-563).
T1 construct: Homotrimer when alone in solution by SEC-MALS (186 kDa); also called His-CTNNBL1; full-length CTNNBL1; source: E. coli BL21 Rosetta (DE3)pLysS, purified (Ni-NTA, Resource Q)
T1 sequence (looked up): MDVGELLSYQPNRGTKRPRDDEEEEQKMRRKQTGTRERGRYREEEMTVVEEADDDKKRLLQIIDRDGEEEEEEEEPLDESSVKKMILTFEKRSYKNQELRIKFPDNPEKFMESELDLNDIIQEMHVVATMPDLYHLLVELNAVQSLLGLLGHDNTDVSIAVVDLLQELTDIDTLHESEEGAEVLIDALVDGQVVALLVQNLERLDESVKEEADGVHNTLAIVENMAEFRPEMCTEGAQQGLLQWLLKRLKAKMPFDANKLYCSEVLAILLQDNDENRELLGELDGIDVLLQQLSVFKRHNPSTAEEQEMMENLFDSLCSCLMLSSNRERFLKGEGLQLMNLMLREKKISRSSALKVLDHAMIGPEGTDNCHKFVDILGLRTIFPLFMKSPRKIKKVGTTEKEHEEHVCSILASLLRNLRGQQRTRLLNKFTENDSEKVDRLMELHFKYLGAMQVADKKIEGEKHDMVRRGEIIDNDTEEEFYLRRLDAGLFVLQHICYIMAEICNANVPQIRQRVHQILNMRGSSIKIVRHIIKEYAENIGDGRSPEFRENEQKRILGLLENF
Kind of series: pull-down; His-CTNNBL1 (full length or [77–563]) as bait on Ni-NTA resin; 10–20 μg of each purified protein in pull down buffer, 1 h at 4°C; eluates on SDS-PAGE, Instant Blue. Conditions: both partners purified.

Series [2] concerns the molecule itself. Kind of series: SEC-MALS; CTNNBL1 (full length or [77–563]) alone; also in high salt buffer (0.5 M NaCl) or with CWC15[80–229] added; Supplementary Figure S7. In general terms: SEC sorts molecules by how far they enter the pores of the column.
Series [3] addresses T2, CWC15[80–229] (human, UniProt Q9P013 80-229).
T2 construct: Tag cleaved off by HRV 3C protease for gel filtration, crosslinking and HDX; source: E. coli BL21 Rosetta (DE3)pLysS, purified (Glutathione-Sepharose 4B, HRV 3C cleavage, Resource Q)
T2 sequence (looked up): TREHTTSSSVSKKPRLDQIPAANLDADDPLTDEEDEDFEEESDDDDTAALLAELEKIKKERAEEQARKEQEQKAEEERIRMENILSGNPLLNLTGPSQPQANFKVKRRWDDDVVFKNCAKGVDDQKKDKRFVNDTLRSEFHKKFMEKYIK
The series is described as follows: SEC-MALS; mixture of purified His-CTNNBL1[77–563], CDC5L[1–195] and CWC15[80–229]. Conditions: both partners purified.

By stoichiometry N is commonly meant the number of molecules, sites or subunits per partner or assembly.

B1: full-length GST-CWC15 (natural protein, human, UniProt Q9P013 1-229, looked up)
chain: MTTAARPTFEPARGGRGKGEGDLSQLSKQYSSRDLPSHTKIKYRQTTQDAPEEVRNRDFRRELEERERAAAREKNRDRPTREHTTSSSVSKKPRLDQIPAANLDADDPLTDEEDEDFEEESDDDDTAALLAELEKIKKERAEEQARKEQEQKAEEERIRMENILSGNPLLNLTGPSQPQANFKVKRRWDDDVVFKNCAKGVDDQKKDKRFVNDTLRSEFHKKFMEKYIK
notes: source: E. coli BL21 Rosetta (DE3)pLysS, purified (Glutathione-Sepharose 4B)
In the case of B1, the binding result in series [1] was “binds”.

B2: His-CTNNBL1[77–563] (domain or fragment, human, UniProt Q8WYA6 77-563, looked up)
chain: LDESSVKKMILTFEKRSYKNQELRIKFPDNPEKFMESELDLNDIIQEMHVVATMPDLYHLLVELNAVQSLLGLLGHDNTDVSIAVVDLLQELTDIDTLHESEEGAEVLIDALVDGQVVALLVQNLERLDESVKEEADGVHNTLAIVENMAEFRPEMCTEGAQQGLLQWLLKRLKAKMPFDANKLYCSEVLAILLQDNDENRELLGELDGIDVLLQQLSVFKRHNPSTAEEQEMMENLFDSLCSCLMLSSNRERFLKGEGLQLMNLMLREKKISRSSALKVLDHAMIGPEGTDNCHKFVDILGLRTIFPLFMKSPRKIKKVGTTEKEHEEHVCSILASLLRNLRGQQRTRLLNKFTENDSEKVDRLMELHFKYLGAMQVADKKIEGEKHDMVRRGEIIDNDTEEEFYLRRLDAGLFVLQHICYIMAEICNANVPQIRQRVHQILNMRGSSIKIVRHIIKEYAENIGDGRSPEFRENEQKRILGLLENF
notes: Homotrimer when alone in solution by SEC-MALS (165 kDa); also called N-terminal truncation mutant of CTNNBL1; source: E. coli BL21 Rosetta (DE3)pLysS, purified (Ni-NTA, Resource Q)
Take B2: the “stoichiometry N” value in series [2] was 3.

B3: CDC5L[1–195] (domain or fragment, human, UniProt Q99459 1-195, looked up)
chain: MPRIMIKGGVWRNTEDEILKAAVMKYGKNQWSRIASLLHRKSAKQCKARWYEWLDPSIKKTEWSREEEEKLLHLAKLMPTQWRTIAPIIGRTAAQCLEHYEFLLDKAAQRDNEEETTDDPRKLKPGEIDPNPETKPARPDPIDMDEDELEMLSEARARLANTQGKKAKRKAREKQLEEARRLAALQKRRELRAAG
notes: Tag cleaved off by TEV protease for gel filtration, crosslinking and HDX; source: E. coli BL21 Rosetta (DE3)pLysS, purified (amylose resin, TEV cleavage, Resource S)
In the case of B3, in series [3], the “stoichiometry N” value stood at 1.
